Legend:
HLA-A*0201 [1] = target: T1, HLA-A*0201 (human); assay: REVEAL off rate analysis of peptide-MHC pentamers, 37 C, 0, 2 and 24 h; * 24 h interval too short for an accurate value
T1 construct: Class I MHC molecule of the ProImmune REVEAL assay; also called HLA-A2
Method: (§1) The pentamers were subjected to incubation and analysis at 37° C. to determine the stability of peptide-MHC complexes. Off-rates of the complexes were measured by REVEAL™ off rate analysis (ProImmune Ltd., Oxford, UK) after 0, 2, and 24 hours of incubation at 37° C.

HLA-A*0201 [2] = target: T1, HLA-A*0201; assay: REVEAL MHC binding assay, incorporation into MHC relative to positive control peptide
HLA-A*0101 [3] = target: T2, HLA-A*0101 (human); assay: as above
T2 construct: Class I MHC molecule of the ProImmune REVEAL assay; also called HLA-A1

HLA-A*0101 [4] = target: T2, HLA-A*0101; assay: REVEAL off rate analysis of peptide-MHC pentamers, 37 C, 0, 2 and 24 h
Method: as §1

HLA-A*0301 [5] = target: T3, HLA-A*0301 (human); assay: REVEAL MHC binding assay, incorporation into MHC relative to positive control peptide
T3 construct: Class I MHC molecule of the ProImmune REVEAL assay; also called HLA-A3

HLA-A*0301 [6] = target: T3, HLA-A*0301; assay: REVEAL off rate analysis of peptide-MHC pentamers, 37 C, 0, 2 and 24 h
Method: as §1

HLA-A*0201 [7] = target: T1, HLA-A*0201; assay: as above
Method: as §1

HLA-A*0301 [8] = target: T3, HLA-A*0301; assay: REVEAL off rate analysis of peptide-MHC pentamers, 37 C, 0, 2 and 24 h; * 24 h interval too short for an accurate value
Method: as §1

Binder | % Positive Control (HLA-A*0201 [2]) | t1/2 (HLA-A*0201 [7]) | further results
GLLERVTRI (synthetic nine-residue peptide of human CD133 (ProImmune)) [CD133 peptide GLLERVTRI (SEQ ID NO:20)] | 131% | – | t1/2 (HLA-A*0201 [1]): 74.3 h
AVDVFLCSY (synthetic nine-residue peptide of human CD133 (ProImmune)) [CD133 peptide AVDVFLCSY (SEQ ID NO:1)] | – | – | % Positive Control (HLA-A*0101 [3]): 58.6%; t1/2 (HLA-A*0101 [4]): 20.7 h
NLFWFGIGK (synthetic nine-residue peptide of human CD133 (ProImmune)) [CD133 peptide NLFWFGIGK (SEQ ID NO:9)] | – | – | % Positive Control (HLA-A*0301 [5]): 53.1%; t1/2 (HLA-A*0301 [6]): 3.35 h
NLLSFAYDL (synthetic nine-residue peptide of human CD133 (ProImmune)) [CD133 peptide NLLSFAYDL (SEQ ID NO:12)] | 180% | 1.83 h | –
FLLPALIFA (synthetic nine-residue peptide of human CD133 (ProImmune)) [CD133 peptide FLLPALIFA (SEQ ID NO:21)] | 93.6% | – | t1/2 (HLA-A*0201 [1]): > 120 h
IIDPLNLFW (synthetic nine-residue peptide of human CD133 (ProImmune)) [CD133 peptide IIDPLNLFW (SEQ ID NO:3)] | – | – | % Positive Control (HLA-A*0101 [3]): 91.5%; t1/2 (HLA-A*0101 [4]): 0.35 h
LVLGSLLLL (synthetic nine-residue peptide of human CD133 (ProImmune)) [CD133 peptide LVLGSLLLL (SEQ ID NO:17)] | 102% | 8.25 h | –
YLSGKLFNK (synthetic nine-residue peptide of human CD133 (ProImmune)) [CD133 peptide YLSGKLFNK (SEQ ID NO:6)] | – | – | % Positive Control (HLA-A*0301 [5]): 46.9%
FITNNTSSV (synthetic nine-residue peptide of human CD133 (ProImmune)) [CD133 peptide FITNNTSSV (SEQ ID NO:13)] | 107% | 20 h | –
ELVHIFLYV (synthetic nine-residue peptide of human CD133 (ProImmune)) [CD133 peptide ELVHIFLYV (SEQ ID NO:16)] | 156% | 6.86 h | –
LSSSLTSVK (synthetic nine-residue peptide of human CD133 (ProImmune)) [CD133 peptide LSSSLTSVK (SEQ ID NO:8)] | – | – | % Positive Control (HLA-A*0301 [5]): 52.5%; t1/2 (HLA-A*0301 [6]): 1.8 h
RTRIKRSRK (synthetic nine-residue peptide of human CD133 (ProImmune)) [CD133 peptide RTRIKRSRK (SEQ ID NO:7)] | – | – | % Positive Control (HLA-A*0301 [5]): 87.3%; t1/2 (HLA-A*0301 [6]): 23.9 h
ILAQYNTTK (synthetic nine-residue peptide of human CD133 (ProImmune)) [CD133 peptide ILAQYNTTK (SEQ ID NO:5)] | – | – | % Positive Control (HLA-A*0301 [5]): 46.6%; t1/2 (HLA-A*0301 [6]): 2.07 h
KLFNKSKMK (synthetic nine-residue peptide of human CD133 (ProImmune)) [CD133 peptide KLFNKSKMK (SEQ ID NO:4)] | – | – | % Positive Control (HLA-A*0301 [5]): 80.8%; t1/2 (HLA-A*0301 [8]): 27.8 h
ILCCVLGLL (synthetic nine-residue peptide of human CD133 (ProImmune)) [CD133 peptide ILCCVLGLL (SEQ ID NO:19)] | 163% | 5.63 h | –
SSELESLKV (synthetic nine-residue peptide of human CD133 (ProImmune)) [CD133 peptide SSELESLKV (SEQ ID NO:2)] | – | – | % Positive Control (HLA-A*0101 [3]): 74.1%; t1/2 (HLA-A*0101 [4]): 0.46 h

Second part, led by results:

% Positive Control (HLA-A*0201 [2]) | t1/2 (HLA-A*0201 [7]) | Binder | further results
165% | 3.51 h | RVLDTPYLL (synthetic nine-residue peptide of human CD133 (ProImmune)) [CD133 peptide RVLDTPYLL (SEQ ID NO:14)] | –
115% | 15.5 h | SLDFAQNFI (synthetic nine-residue peptide of human CD133 (ProImmune)) [CD133 peptide SLDFAQNFI (SEQ ID NO:15)] | –
309% | 1.43 h | VLDEIKSMA (synthetic nine-residue peptide of human CD133 (ProImmune)) [CD133 peptide VLDEIKSMA (SEQ ID NO:10)] | –
113% | – | YLQWIEFSI (synthetic nine-residue peptide of human CD133 (ProImmune)) [CD133 peptide YLQWIEFSI (SEQ ID NO:11)] | t1/2 (HLA-A*0201 [1]): 83 h
123% | 2.37 h | SQLNSNPEL (synthetic nine-residue peptide of human CD133 (ProImmune)) [CD133 peptide SQLNSNPEL (SEQ ID NO:18)] | –
